Data from article PMC12401969, “The gut microbiota protein BOC1 exhibits immune checkpoint inhibitor-like activity by inhibiting myeloid-derived suppressor cell differentiation” (Frontiers in Immunology, 2025).

How the values were obtained:
[1] = biological target: CD200R1 on human monocytes, MoDCs and MDSCs (human (endogenous in primary monocytes, MoDCs, MDSCs)) (UniProt Q8TD46)
biotinylated CD200R1 [2] = biological target: T1, biotinylated CD200R1 (UniProt Q8TD46 29-265, biotin (site not stated)); assay: AlphaScreen or HTRF; AlphaLISA; 3 nM CD200R1-(biot) with a dose response (0.1 to 100 nM) of the His-tagged protein; fit 'One site-total' (GraphPad Prism)
T1 construct: CD200R1 (CD200 receptor 1), soluble biotinylated protein; Held on streptavidin Donor beads in the AlphaLISA; also called CD200R1-(biot)
T1 sequence (looked up): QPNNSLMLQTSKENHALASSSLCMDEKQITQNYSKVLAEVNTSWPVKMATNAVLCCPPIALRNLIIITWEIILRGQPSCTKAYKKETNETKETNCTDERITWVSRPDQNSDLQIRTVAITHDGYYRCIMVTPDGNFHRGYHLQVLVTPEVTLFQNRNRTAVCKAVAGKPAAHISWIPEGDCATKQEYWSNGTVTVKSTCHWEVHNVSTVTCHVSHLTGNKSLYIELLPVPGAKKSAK

biotinylated CD200R1 [3] = biological target: T1, biotinylated CD200R1; assay: AlphaScreen or HTRF; AlphaLISA; 3 nM CD200R1-(biot) with a dose response of His-tagged BOC1, its mutants, CD200 or P352 (0.1 to 300 nM by the legend, 0.1 to 100 nM by the table's footnote); fit 'One site-total' (GraphPad Prism)

Sequence of CD200R1 on human monocytes, MoDCs and MDSCs (human (endogenous in primary monocytes, MoDCs, MDSCs)) (Q8TD46 25-348): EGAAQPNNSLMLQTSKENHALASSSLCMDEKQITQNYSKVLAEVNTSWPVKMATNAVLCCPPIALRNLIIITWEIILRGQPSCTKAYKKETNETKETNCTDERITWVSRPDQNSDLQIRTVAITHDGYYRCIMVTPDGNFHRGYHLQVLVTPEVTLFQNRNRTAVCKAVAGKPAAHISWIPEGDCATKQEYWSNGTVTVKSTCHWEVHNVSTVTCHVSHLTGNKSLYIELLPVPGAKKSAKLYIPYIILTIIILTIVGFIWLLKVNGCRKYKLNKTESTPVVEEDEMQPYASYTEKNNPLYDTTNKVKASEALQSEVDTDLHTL

## BOC1-His (natural protein)
[1]
  inhibition of the differentiation of human monocytes into MDSCs (rhIL-6 + rhGM-CSF, 7 days; BOC1 at 1, 10, 50 nM), CD14+CD11b+CD33+HLA-DRlow cells by flow cytometry: 90%
Biotinylated CD200R1 [2]
  Kd: 0.38 nM
Biotinylated CD200R1 [3]
  Kd: 0.38 nM

## BOC1-m1 (Glu19) (natural protein)
Biotinylated CD200R1 [3]
  Kd: 0.96 nM

## BOC1-m2 (Ser34) (natural protein)
Biotinylated CD200R1 [3]
  Kd: 2.78 nM

B1: CD200-His (ligand, UniProt P41217 31-232, looked up)
chain: QVQVVTQDEREQLYTPASLKCSLQNAQEALIVTWQKKKAVSPENMVTFSENHGVVIQPAYKDKINITQLGLQNSTITFWNITLEDEGCYMCLFNTFGFGKISGTACLTVYVQPIVSLHYKFSEDHLNITCSATARPAPMVFWKVPRSGIENSTVTLSHPNGTTSVTSILHIKDPKNQVGKEVICQVLHLGTVTDFKQTVNKG
notes: CD200 (OX-2), soluble His-tagged protein; Held on anti-6His Acceptor beads in the AlphaLISA; also called His-tagged CD200
Biotinylated CD200R1 [2]; both partners purified
  Kd: 1.56 ± 0.3 nM
Biotinylated CD200R1 [3]; both partners purified
  Kd: 0.95 ± 0.27 nM
